Laboratory results reported in US12338268B2, “Compositions and methods for treating protein aggregation-associated diseases” (The Board of Trustees of the Leland Stanford Junior …, priority 2019, dated 2025).

Assays:
[1] = molecular target: T1, mutant Huntingtin exon 1 (mHttQ51) (Homo sapiens, UniProt P42858, INS38QQQQQQQQQQQQQQQQQQQQQQQQQQQQQQQ); assay: In vitro filter trap aggregation assay of mutant Huntingtin exon 1; type: biochemical; details: for mHttQ51 aggregation: 5× molar excess, 3 μM mHttQ51, filter trap, SDS-insoluble aggregates
T1 construct: mutant Huntingtin exon 1 containing a pathogenic stretch of 51 glutamines (mHttQ51); GST (N, cleaved yes); made in house; host or cells: E. coli Rosetta 2(DE3) pLysS
T1 sequence (P42858 with tags, fused parts or gaps with the stated changes limits assumed): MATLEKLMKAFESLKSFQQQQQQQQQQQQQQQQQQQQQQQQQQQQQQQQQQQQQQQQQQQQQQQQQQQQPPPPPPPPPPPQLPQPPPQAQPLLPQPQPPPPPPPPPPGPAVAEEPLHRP
Protocol: (§1) Mutant Huntingtin and PolyQ51 aggregation reactions were performed at concentration 3 μM of mHttQ51, 0.044 Units/μl acTEV protease (Invitrogen, Carlsbad, CA, USA), and respective concentrations of Ovalbumin (Sigma) or purified NAC chaperone variants. Aggregation was conducted in TEV reaction buffer (Invitrogen) and incubated at 30° C. AtxQ78 was buffer exchanged into TEV reaction buffer using 7K MWCO Zeba Spin Desalting Columns (Thermo Fisher) to initiate aggregation. AtxQ78 aggregation reactions were performed at 30 μM of Ataxin-3 in reaction buffer (20 mM sodium phosphate pH 7.5, 25 mM NaCl, 6 mM MgCl2, 2 mM DTT, 5% (v/v) glycerol) and incubated at 37° C. Samples at varied time-points were then taken and combined in a 1:1 ratio with a 4% (w/v) SDS, 100 mM DTT solution, boiled for 5 min at 95° C., and stored at −20° C. Samples were then filtered through a 0.22 μm cellulose acetate membrane (Whatman) and washed with 0.1% (w/v) SDS. Membrane was probed using an S-tag antibody (Abcam) for mHttQ51 and PolyQ51, and with a His-tag antibody (Abcam) for AtxQ78.

[2] = molecular target: T2, full-length Ataxin-3 (AtxQ78) (Homo sapiens, UniProt P54252, INS305QQQQQQQQQQQQQQQQQQQQQQQQQQQQQQQQQQQQQQQQQQQQQQQQQQQQQQQQQQQQQQQQ); assay: Filter trap aggregation assay of AtxQ78; type: biochemical; details: equimolar (1×) NAC, 37° C.
T2 construct: full-length Ataxin-3 harboring a stretch of 78 glutamines (AtxQ78); made in house
T2 sequence (P54252 with tags, fused parts or gaps with the stated changes): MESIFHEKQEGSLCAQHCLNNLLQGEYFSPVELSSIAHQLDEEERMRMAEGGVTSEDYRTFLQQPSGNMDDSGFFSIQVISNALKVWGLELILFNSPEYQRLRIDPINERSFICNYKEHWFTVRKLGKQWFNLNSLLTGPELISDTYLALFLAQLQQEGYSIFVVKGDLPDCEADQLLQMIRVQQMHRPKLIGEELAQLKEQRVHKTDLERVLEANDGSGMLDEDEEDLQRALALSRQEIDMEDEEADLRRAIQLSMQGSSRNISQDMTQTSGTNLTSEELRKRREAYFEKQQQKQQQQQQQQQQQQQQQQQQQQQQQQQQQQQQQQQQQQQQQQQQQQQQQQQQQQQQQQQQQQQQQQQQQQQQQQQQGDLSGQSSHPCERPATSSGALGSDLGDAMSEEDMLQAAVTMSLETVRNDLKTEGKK
Protocol: as §1

PolyQ35::YFP = PolyQ35::YFP aggregation in C. elegans overexpressing NAC (fluorescence microscopy, SDD-AGE); type: in vivo; details: overexpressed in body wall muscle cells (myo-3 promoter), day 3 of adulthood, fluorescence microscopy
Text: NAC is a major ribosome-binding factor interacting broadly with nascent chains (del Alamo et al., 2011). However, its assumed chaperone function is poorly investigated. […] Although loss of NAC causes pleiotropic defects in C. elegans (Gamerdinger et al., 2015), this finding raises the possibility that NAC directly exerts a chaperone function on aggregation-prone proteins. In this case, overexpression of NAC should prevent aggregation of PolyQ proteins in vivo. Therefore, we used a C. elegans strain expressing 35 consecutive glutamine residues fused to YFP (PolyQ35::YFP) in body wall muscle cells. This PolyQ length is close to the aggregation threshold in C. elegans muscle cells, leading to progressive, age-dependent aggregation starting at day 2 of adulthood (Morley et al., 2002). We generated transgenic animals that overexpress FLAG-tagged α- and βNAC under the control of the muscle-specific myo-3 promoter. PolyQ aggregation was assessed at day 3 of adulthood by fluorescence microscopy as well as semi-denaturing detergent agarose gel electrophoresis (SDD-AGE), which detects high molecular weight oligomeric PolyQ species (Halfmann and Lindquist, 2008). […] This is evident by magnification of the head regions showing diffuse PolyQ35::YFP and less punctate PolyQ35::YFP structures when NAC was overexpressed (FIG. 1A, head region images). […] To directly test the potential chaperone function of NAC, we employed a peptide composed of 51 consecutive glutamines (PolyQ51) as a model substrate in a well-established in vitro aggregation assay. We initiated aggregation of PolyQ51 by cleaving a solubilizing GST tag with TEV protease and detected aggregates over time using a filter trap assay.
Worms were cultured according to standard techniques with E. coli OP50 as food source (Brenner, 1974). Transgenic strains were generated using standard microinjection protocols (Mello and Fire, 1995). […]

Aβ40 = molecular target: T3, Aβ40 (Homo sapiens, UniProt P05067); assay: Thioflavin T fluorescence assay of Aβ40 aggregation; type: biochemical; details: equimolar NAC variant and Aβ40 (32 μM FIG. 4C; 18 μM FIG. 12C), 37° C., 20 h
T3 construct: Aβ40 peptide was expressed and purified as described previously; made in house; host or cells: E. coli BL21 (DE3)
Protocol: Lyophilized Aβ40 was resuspended at 320 μM in 20 mM sodium phosphate pH 7.4, 0.2 mM EDTA, 0.01% (w/v) sodium azide and stored on ice. The NAC proteins were diluted to 100 μM in storage buffer (20 mM sodium phosphate pH 7.5, 25 mM NaCl, 6 mM MgCl2, 2 mM β-mercaptoethanol, 5% (v/v) glycerol) and buffer exchanged into 20 mM sodium phosphate pH 7.4, 0.2 mM EDTA, 0.01% (w/v) sodium azide, 1× complete mini protease inhibitor, EDTA free (Roche) by means of ZebaSpin 7 kDa MWCO spin columns (Thermo Scientific). Samples were prepared that contained equimolar concentrations of Aβ40 and NAC variants. Thioflavin T was added to a final concentration of 10 μM. The samples were transferred to a 96 well half-area clear bottom microplate (Corning GmbH, Wiesbaden, Germany), with 95 μL of sample in each well. The fluorescence (excitation: 440 nm, emission: 480 nm) was measured using a BMG Omega plate reader (BMG Labtech) incubating samples at 37° C., quiescently.

[3] = system: PolyQ35::YFP C. elegans worms; assay: Paralysis assay; type: in vivo; details: overexpression; day 6 to 10 of adulthood
Protocol: To analyze the percentage of paralyzed worms, 100 semi-synchronized (timed egg lay for 5 h) young adult worms of each strain were placed on a plate containing 150 μM 5-fluorodeoxyuridine. Screening of paralyzed worms was started at day 6 of adulthood.

B1: ApiCCT1: the 140 amino acid apical domain of CCT1 (protein)
chain: MVPGYALNCTVASQAMPKRIAGGNVKIACLDLNLQKARMAMGVQINIDDPEQLEQIRKREAGIVLERVKKIIDAGAQVVLTTKGIDDLCLKEFVEAKIMGVRRCKKEDLRRIARATGATLVSSMSNLEGEETFESSYLGLCDEVVQAKFSDDECILIKGTSKAAAAALEHHHHHH
polyQ aggregation of huntingtin exon1 ([1]; system with purified components): specifically and efficiently inhibits polyQ aggregation of huntingtin exon1

B2: ovalbumin: molar equivalent ovalbumin control protein (Sigma) (protein, UniProt P01012 2-386, looked up)
Ovalbumin: GSIGAASMEFCFDVFKELKVHHANENIFYCPIAIMSALAMVYLGAKDSTRTQINKVVRFDKLPGFGDSIEAQCGTSVNVHSSLRDILNQITKPNDVYSFSLASRLYAEERYPILPEYLQCVKELYRGGLEPINFQTAADQARELINSWVESQTNGIIRNVLQPSSVDSQTAMVLVNAIVFKGLWEKAFKDEDTQAMPFRVTEQESKPVQMMYQIGLFRVASMASEKMKILELPFASGTMSMLVLLPDEVSGLEQLESIINFEKLTEWTSSNVMEERKIKVYLPRMKMEEKYNLTSVLMAMGITDVFSSSANLSGISSAESLKISQAVHAAHAEINEAGREVVGSAEAGVDAASVSEEFRADHPFLFCIKHIATNAVLFFGRCVSP
mHttQ51 aggregation [1]: little effect

B3: C. elegans NAC: purified recombinant C. elegans nascent polypeptide-associated complex (protein)
chain 1: MTGSTETRQKEVKEPQVDVSDDSDNEAVEQELTEEQRRVAEAAGLGDHIDKQAKQSRSEKKARKLFSKLGLKQVTGVSRVCIRKSKNILFVINKPDVFKSPGSDTYIIFGEAKIEDLTQHAQMSAIENLKPTREAPQLKTVEEDENEDVEEDSTGIEEKDIELVISQANTTRNKAIRALKEADNDIVNAIMSLTM
chain 2: MDSKAIAERIKKLQAQQEHVRIGGKGTPRRKKKVIHKTAAADDKKLQSNLKKLSVTNIPGIEEVNMIKDDGTVIHFNNPKVQTSVPANTFSVTGSADNKQITEMLPGILNQLGPESLTHLKKLANNVTKLGPDGKGEDEDVPELVGDFDAASKNETKADEQ
mHttQ51 aggregation [1]: to a lesser extent
AtxQ78 aggregation [2]: prevented AtxQ78 aggregation but was slightly less effective than the human isoform

B4: RRK/AAA-NAC: NAC with mutation in the conserved ribosome-binding motif in the N-terminus of βNAC; ribosome-binding deficient (protein)
chain 1: MTGSTETRQKEVKEPQVDVSDDSDNEAVEQELTEEQRRVAEAAGLGDHIDKQAKQSRSEKKARKLFSKLGLKQVTGVSRVCIRKSKNILFVINKPDVFKSPGSDTYIIFGEAKIEDLTQHAQMSAIENLKPTREAPQLKTVEEDENEDVEEDSTGIEEKDIELVISQANTTRNKAIRALKEADNDIVNAIMSLTM
chain 2: MDSKAIAERIKKLQAQQEHVRIGGKGTPAAAKKVIHKTAAADDKKLQSNLKKLSVTNIPGIEEVNMIKDDGTVIHFNNPKVQTSVPANTFSVTGSADNKQITEMLPGILNQLGPESLTHLKKLANNVTKLGPDGKGEDEDVPELVGDFDAASKNETKADEQ
PolyQ35::YFP aggregation (PolyQ35::YFP): suppressed PolyQ35::YFP aggregation similarly to WT-NAC
mHttQ51 aggregation [1]: delayed mHttQ51 aggregation similar to wild-type NAC
Aβ40 aggregation (ThT fluorescence) (Aβ40): fully suppressed Aβ40 aggregation
motility / age-associated paralysis of PolyQ35::YFP-expressing worms [3]: still improved motility during aging albeit less effective than WT-NAC
